Experimental findings from the supplement of paper PMC11246515 are described below.

± gives the standard deviation of the averaged measurements.

The data set in a line: total protein half-life in vivo (active degradation + dilution); higher = more stable protein.
The mark [1] stands for this setting: E. coli NCM3722 delta-clpP, growth: N-lim chemostat, doubling time 6 h.
The mark [2] stands for this setting: E. coli NCM3722 delta-hslV, growth: N-lim chemostat, doubling time 6 h.
Setting [3] is: E. coli NCM3722 delta-lon, growth: N-lim chemostat, doubling time 6 h.
Setting [4] is: E. coli NCM3722 delta-smpB, growth: N-lim chemostat, doubling time 6 h.
Where [5] appears, read: wild type E. coli NCM3722, growth: C-lim chemostat, doubling time 12 h.
The mark [6] stands for this setting: wild type E. coli NCM3722, growth: N-lim chemostat, doubling time 6 h.
Where [7] appears, read: wild type E. coli NCM3722, growth: N-lim chemostat, doubling time 12 h.
Setting [8] is: E. coli NCM3722 delta-clpP delta-lon delta-hslV, growth: N-lim chemostat, doubling time 6 h.
The mark [9] stands for this setting: wild type E. coli NCM3722, growth: C-lim chemostat, doubling time 3 h.
[10] abbreviates: wild type E. coli NCM3722, growth: C-lim chemostat, doubling time 6 h.
Where [11] appears, read: wild type E. coli NCM3722, growth: P-lim chemostat, doubling time 6 h.
The mark [12] stands for this setting: wild type E. coli NCM3722, growth: P-lim chemostat, doubling time 12 h.

For “MPLVIVAIGVILLLLLMIRFKMNGFIALVLVALAVGLMQGMPLDKVIGSIKAGVGGTLGSLALIMGFGAMLGKMLADCGGAQRIATTLIAKFGKKHIQWAVVLTGFTVGFALFYEVGFVLMLPLVFTIAASANIPLLYVGVPMAAALSVTHGFLPPHPGPTAIATIFNADMGKTLLYGTILAIPTVILAGPVYARVLKGIDKPIPEGLYSAKTFSEEEMPSFGVSVWTSLVPVVLMAMRAIAEMILPKGHAFLPVAEFLGDPVMATLIAVLIAMFTFGLNRGRSMDQINDTLVSSIKIIAMMLLIIGGGGAFKQVLVDSGVDKYIASMMHETNISPLLMAWSIAAVLRIALGSATVAAITAGGIAAPLIATTGVSPELMVIAVGSGSVIFSHVNDPGFWLFKEYFNLTIGETIKSWSMLETIISVCGLVGCLLLNMVI”, the “total protein half-life in vivo” value by setting is: under setting [1], 6.71 ± 1 h; under setting [2], 5.83 ± 0.38 h; under setting [3], 6.2 ± 0.55 h; under setting [4], 6.06 ± 0.3 h; under setting [5], 10 ± 0.67 h; under setting [6], 5.75 h. The “total protein half-life in vivo” value under setting [7] amounted to 13 h.
As to “MIIKRTPQAASPLASWLSYLENLHSKTIDLGLERVSLVAARLGVLKPAPFVFTVAGTNGKGTTCRTLESILMAAGYKVGVYSSPHLVRYTERVRVQGQELPESAHTASFAEIESARGDISLTYFEYGTLSALWLFKQAQLDVVILEVGLGGRLDATNIVDADVAVVTSIALDHTDWLGPDRESIGREKAGIFRSEKPAIVGEPEMPSTIADVAQEKGALLQRRGVEWNYSVTDHDWAFSDAHGTLENLPLPLVPQPNAATALAALRASGLEVSENAIRDGIASAILPGRFQIVSESPRVIFDVAHNPHAAEYLTGRMKALPKNGRVLAVIGMLHDKDIAGTLAWLKSVVDDWYCAPLEGPRGATAEQLLEHLGNGKSFDSVAQAWDAAMADAKAEDTVLVCGSFHTVAHVMEVIDARRSGGK”, the “total protein half-life in vivo” value reads like this: under setting [8], 4.62 ± 0.55 h; under setting [1], 4.95 ± 1.1 h; under setting [2], 4.08 ± 0.39 h; under setting [4], 3.813 ± 0.021 h; under setting [9], 3.151 ± 0.024 h; under setting [10], 5.09 ± 0.13 h. Also, the “total protein half-life in vivo” value came to 9.2 ± 1.6 h under setting [5]; 3.807 ± 0.036 h under setting [6]; 6.07 ± 0.99 h under setting [7]; 5.34 ± 0.23 h under setting [11]; 9.6 ± 0.66 h under setting [12].
In the case of “MKKNQFLKESDVTAESVFFMKRRQVLKALGISATALSLPHAAHADLLSWFKGNDRPPAPAGKALEFSKPAAWQNNLPLTPADKVSGYNNFYEFGLDKADPAANAGSLKTDPWTLKISGEVAKPLTLDHDDLTRRFPLEERIYRMRCVEAWSMVVPWIGFPLHKLLALAEPTSNAKYVAFETIYAPEQMPGQQDRFIGGGLKYPYVEGLRLDEAMHPLTLMTVGVYGKALPPQNGAPVRLIVPWKYGFKGIKSIVSIKLTRERPPTTWNLAAPDEYGFYANVNPYVDHPRWSQATERFIGSGGILDVQRQPTLLFNGYAAQVASLYRGLDLRENF”, the “total protein half-life in vivo” value stood at 4.835 ± 0.0049 h under setting [8]; 5.46 ± 0.24 h under setting [1]; 5.75 ± 0.17 h under setting [2]; 5.98 ± 0.35 h under setting [3]; 5.33 ± 0.3 h under setting [4]; 2.98 ± 0.034 h under setting [9]. For the same sequence, the “total protein half-life in vivo” value is, setting by setting: under setting [10], 5.58 ± 0.24 h; under setting [5], 8.4 ± 0.38 h; under setting [6], 5.79 ± 0.18 h; under setting [7], 11.9 ± 0.43 h; under setting [11], 5.91 ± 0.19 h; under setting [12], 11.9 ± 0.57 h.
On to “MPDSRKARRIADPGLQPERTSLAWFRTMLGYGALMALAIKHNWHQAGMLFWISIGILAIVALILWHYTRNRNLMDVTNSDFSQFHVVRDKFLISLAVLSLAILFAVTHIHQLIVFIERVA [P0ADL6]”, for which the “total protein half-life in vivo” value under setting [7] was found to be 8.68 h.
Turning to “MTDDFAPDGQLAKAIPGFKPREPQRQMAVAVTQAIEKGQPLVVEAGTGTGKTYAYLAPALRAKKKVIISTGSKALQDQLYSRDLPTVSKALKYTGNVALLKGRSNYLCLERLEQQALAGGDLPVQILSDVILLRSWSNQTVDGDISTCVSVAEDSQAWPLVTSTNDNCLGSDCPMYKDCFVVKARKKAMDADVVVVNHHLFLADMVVKESGFGELIPEADVMIFDEAHQLPDIASQYFGQSLSSRQLLDLAKDITIAYRTELKDTQQLQKCADRLAQSAQDFRLQLGEPGYRGNLRELLANPQIQRAFLLLDDTLELCYDVAKLSLGRSALLDAAFERATLYRTRLKRLKEINQPGYSYWYECTSRHFTLALTPLSVADKFKELMAQKPGSWIFTSATLSVNDDLHHFTSRLGIEQAESLLLPSPFDYSRQALLCVLRNLPQTNQPGSARQLAAMLRPIIEANNGRCFMLCTSHAMMRDLAEQFRATMTLPVLLQGETSKGQLLQQFVSAGNALLVATSSFWEGVDVRGDTLSLVIIDKLPFTSPDDPLLKARMEDCRLRGGDPFDEVQLPDAVITLKQGVGRLIRDADDRGVLVICDNRLVMRPYGATFLASLPPAPRTRDIARAVRFLAIPSSR”, the “total protein half-life in vivo” value reads like this: under setting [8], 5.98 ± 0.95 h; under setting [9], 3.37 h.
For the sequence “MNNTPRYPQRVRNDLRFRELTVLRVERISAGFQRIVLGGEALDGFTSRGFDDHSKLFFPQPDAHFVPPTVTEEGIVWPEGPRPPSRDYTPLYDELRHELAIDFFIHDGGVASGWAMQAQPGDKLTVAGPRGSLVVPEDYAYQLYVCDESGMPALRRRLETLSKLAVKPQVSALVSVRDNACQDYLAHLDGFNIEWLAHDEQAVDARLAQMQIPADDYFIWITGEGKVVKNLSRRFEAEQYDPQRVRAAAYWHAK”, the “total protein half-life in vivo” value runs as follows: under setting [8], 4.98 ± 0.54 h; under setting [1], 3.77 ± 0.45 h; under setting [2], 4.7 ± 0.13 h; under setting [3], 5.34 ± 0.58 h; under setting [4], 4.11 ± 1.2 h; under setting [9], 3.36 ± 0.12 h. Further, the “total protein half-life in vivo” value runs as follows: under setting [10], 6.21 ± 1.1 h; under setting [5], 9.46 ± 0.69 h; under setting [6], 4.38 ± 0.69 h; under setting [7], 7.07 h; under setting [11], 5.663 ± 0.053 h; under setting [12], 12.1 ± 0.45 h.
Regarding “MNPVDRPLLDIGLTRLEFLRISGKGLAGLTIAPALLSLLGCKQEDIDSGTVGLINTPKGVLVTQRARCTGCHRCEISCTNFNDGSVGTFFSRIKIHRNYFFGDNGVGSGGGLYGDLNYTADTCRQCKEPQCMNVCPIGAITWQQKEGCITVDHKRCIGCSACTTACPWMMATVNTESKKSSKCVLCGECANACPTGALKIIEWKDITV [P0AAL6]”, the “total protein half-life in vivo” value under setting [5] was over 16 h.
In the case of “MTNLPKFSTALLHPRYWLTWLGIGVLWLVVQLPYPVIYRLGCGLGKLALRFMKRRAKIVHRNLELCFPEMSEQERRKMVVKNFESVGMGLMETGMAWFWPDRRIARWTEVIGMEHIRDVQAQKRGILLVGIHFLTLELGARQFGMQEPGIGVYRPNDNPLIDWLQTWGRLRSNKSMLDRKDLKGMIKALKKGEVVWYAPDHDYGPRSSVFVPLFAVEQAATTTGTWMLARMSGACLVPFVPRRKPDGKGYQLIMLPPECSPPLDDAETTAAWMNKVVEKCIMMAPEQYMWLHRRFKTRPEGVPSRY [P0ACV0]”, the “total protein half-life in vivo” value under setting [8] was 6.85 h; the “total protein half-life in vivo” value under setting [1] came out at 5.84 h; the “total protein half-life in vivo” value under setting [2] was determined as 6.63 h; the “total protein half-life in vivo” value under setting [4] came to 5.81 h; the “total protein half-life in vivo” value under setting [10] was determined as 7.93 h.
Turning to “MGQSSQPHELGGGLKSRHVTMLSIAGVIGASLFVGSSVAIAEAGPAVLLAYLFAGLLVVMIMRMLAEMAVATPDTGSFSTYADKAIGRWAGYTIGWLYWWFWVLVIPLEANIAAMILHSWVPGIPIWLFSLVITLALTGSNLLSVKNYGEFEFWLALCKVIAILAFIFLGAVAISGFYPYAEVSGISRLWDSGGFMPNGFGAVLSAMLITMFSFMGAEIVTIAAAESDTPEKHIVRATNSVIWRISIFYLCSIFVVVALIPWNMPGLKAVGSYRSVLELLNIPHAKLIMDCVILLSVTSCLNSALYTASRMLYSLSRRGDAPAVMGKINRSKTPYVAVLLSTGAAFLTVVVNYYAPAKVFKFLIDSSGAIALLVYLVIAVSQLRMRKILRAEGSEIRLRMWLYPWLTWLVIGFITFVLVVMLFRPAQQLEVISTGLLAIGIICTVPIMARWKKLVLWQKTPVHNTR”, the “total protein half-life in vivo” value under setting [2] was 0.975 h and the “total protein half-life in vivo” value under setting [4] came to 1.1 h.
